This is an account of results in IntAct's records for PubMed 25727097.

B1: 5-hydroxytryptamine receptor 2C (Homo sapiens), P28335-1 (parent)
chain: MVNLRNAVHSFLVHLIGLLVWQSDISVSPVAAIVTDIFNTSDGGRFKFPDGVQNWPALSIVIIIIMTIGGNILVIMAVSMEKKLHNATNYFLMSLAIADMLVGLLVMPLSLLAILYDYVWPLPRYLCPVWISLDVLFSTASIMHLCAISLDRYVAIRNPIEHSRFNSRTKAIMKIAIVWAISIGVSVPIPVIGLRDEEKVFVNNTTCVLNDPNFVLIGSFVAFFIPLTIMVITYCLTIYVLRRQALMLLHGHTEEPPGLSLDFLKCCKRNTAEEENSANPNQDQNARRRKKKERRPRGTMQAINNERKASKVLGIVFFVFLIMWCPFFITNILSVLCEKSCNQKLMEKLLNVFVWIGYVCSGINPLVYTLFNKIYRRAFSNYLRCNYKVEKKPPVRQIPRVAATALSGRELNVNIYRHTNEPVIEKASDNEPGIEMQVENLELPVNPSSVVSERISSV

The assay covers variants of B1. The note with it: with GHSR.
Regarding I156V;N158S;I160V, the “effect of a mutation on the interaction” value is “increasing interaction strength”.
